Laboratory results: IntAct's records for PubMed 17928861

B1: DOA4-independent degradation protein 4 (Saccharomyces cerevisiae), P36108 (parent)
chain: MSLFEWVFGKNVTPQERLKKNQRALERTQRELEREKRKLELQDKKLVSEIKKSAKNGQVAAAKVQAKDLVRTRNYIQKFDNMKAQLQAISLRIQAVRSSDQMTRSMSEATGLLAGMNRTMNLPQLQRISMEFEKQSDLMGQRQEFMDEAIDNVMGDEVDEDEEADEIVNKVLDEIGVDLNSQLQSTPQNLVSNAPIAETAMGIPEPIGAGSEFHGNPDDDLQARLNTLKKQT
partner: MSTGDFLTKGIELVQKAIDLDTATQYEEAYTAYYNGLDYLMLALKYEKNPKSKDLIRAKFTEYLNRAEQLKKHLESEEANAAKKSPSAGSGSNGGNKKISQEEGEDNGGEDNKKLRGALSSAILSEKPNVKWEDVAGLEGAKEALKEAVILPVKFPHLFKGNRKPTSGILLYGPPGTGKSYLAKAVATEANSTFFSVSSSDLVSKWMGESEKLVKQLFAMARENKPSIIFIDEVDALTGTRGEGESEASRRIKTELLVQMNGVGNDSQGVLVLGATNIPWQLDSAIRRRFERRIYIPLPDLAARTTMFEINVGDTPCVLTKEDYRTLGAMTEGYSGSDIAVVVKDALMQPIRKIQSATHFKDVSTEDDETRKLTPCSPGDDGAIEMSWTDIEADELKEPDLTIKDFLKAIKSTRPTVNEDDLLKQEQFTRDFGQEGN

Variants of: B1
Conditions: with vps4_yeast VPS4, P52917

effect of a mutation on the interaction	Variant
disrupting interaction strength	MSLFEWVFGKNVTPQERLKKNQRALERTQRELEREKRKLELQDKKLVSEIKKSAKNGQVAAAKVQAKDLVRTRNYIQKFDNMKAQLQAISLRIQAVRSSDQMTRSMSEATGLLAGMNRTMNLPQLQRISMEFEKQSDLMGQRQEFMDEAIDNVMGDEVDEDEEADEIVNKVLDEIGVDLNSQLQSTPQNLVSNAPIAETAMGIPEPIGAGSEFHGNPDDDLQARLNTDKKQT [L228D]
disrupting interaction strength	MSLFEWVFGKNVTPQERLKKNQRALERTQRELEREKRKLELQDKKLVSEIKKSAKNGQVAAAKVQAKDLVRTRNYIQKFDNMKAQLQAISLRIQAVRSSDQMTRSMSEATGLLAGMNRTMNLPQLQRISMEFEKQSDLMGQRQEFMDEAIDNVMGDEVDEDEEADEIVNKVLDEIGVDLNSQLQSTPQNLVSNAPIAETAMGIPEPIGAGSEFHGNPDDDLQADLNTLKKQT [R224D]
disrupting interaction strength	MSLFEWVFGKNVTPQERLKKNQRALERTQRELEREKRKLELQDKKLVSEIKKSAKNGQVAAAKVQAKDLVRTRNYIQKFDNMKAQLQAISLRIQAVRSSDQMTRSMSEATGLLAGMNRTMNLPQLQRISMEFEKQSDLMGQRQEFMDEAIDNVMGDEVDEDEEADEIVNKVLDEIGVDLNSQLQSTPQNLVSNAPIAETAMGIPEPIGAGSEFHGNPDDDLQARDNTLKKQT [L225D]
disrupting interaction strength	MSLFEWVFGKNVTPQERLKKNQRALERTQRELEREKRKLELQDKKLVSEIKKSAKNGQVAAAKVQAKDLVRTRNYIQKFDNMKAQLQAISLRIQAVRSSDQMTRSMSEATGLLAGMNRTMNLPQLQRISMEFEKQSDLMGQRQEFMDEAIDNVMGDEVDEDEEADEIVNKVLDEIGVDLNSQLQSTPQNLVSNAPIAETAMGIPEPIGAGSEFHGNPDDDDQARLNTLKKQT [L221D]
disrupting interaction strength	MSLFEWVFGKNVTPQERLKKNQRALERTQRELEREKRKLELQDKKLVSEIKKSAKNGQVAAAKVQAKDLVRTRNYIQKFDNMKAQLQAISLRIQAVRSSDQMTRSMSEATGLLAGMNRTMNLPQLQRISMEFEKQSDLMGQRQEFMDEAIDNVMGDEVDEDEEADEIVNKVLDEIGVDLNSQLQSTPQNLVSNAPIAETAMGIPEPIGAGSEFHGNPDDDLQARLNTLDKQT [K229D]
